Measured values from PMC4804166, “Different states of synaptotagmin regulate evoked versus spontaneous release” (Nature Communications, 2016).

Target: T1, preformed t-SNARE heterodimers (syntaxin 1A and SNAP-25B) in PS-free proteoliposomes (rat | mouse, UniProt P32851 1-288; P60879-1 1-206)
T1 construct: syntaxin-1A, rat, full-length cDNA; SNAP-25B, mouse; the sentence 'cDNA encoding full-length rat syntaxin-1A, mouse SNAP-25B and mouse synaptobrevin-2' is read as full length for all three; also called t-SNAREs; t-SNARE vesicles; source: pTrcHis vector, purified by the N-terminal His6-tag; reconstituted into PS-free vesicles
T1 sequence (P32851 whole entry, chain 1 of 2): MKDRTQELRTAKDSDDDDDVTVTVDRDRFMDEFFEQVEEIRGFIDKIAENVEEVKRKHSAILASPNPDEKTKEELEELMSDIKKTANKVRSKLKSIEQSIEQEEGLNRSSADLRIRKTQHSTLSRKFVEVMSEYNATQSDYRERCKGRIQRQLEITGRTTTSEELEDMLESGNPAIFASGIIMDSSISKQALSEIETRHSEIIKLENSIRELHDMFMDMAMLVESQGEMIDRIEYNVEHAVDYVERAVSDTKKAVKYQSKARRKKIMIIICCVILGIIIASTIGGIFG
T1 sequence (P60879 whole entry, chain 2 of 2): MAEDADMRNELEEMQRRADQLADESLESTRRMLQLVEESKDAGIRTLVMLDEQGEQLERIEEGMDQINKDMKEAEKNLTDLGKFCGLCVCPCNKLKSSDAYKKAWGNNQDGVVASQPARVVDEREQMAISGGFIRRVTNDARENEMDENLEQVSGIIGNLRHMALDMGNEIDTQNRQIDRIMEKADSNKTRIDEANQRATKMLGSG
Test: co-flotation; 11 uM syt cytoplasmic domain mixed with 45 ul PS-free t-SNARE vesicles in 25 mM HEPES-KOH pH 7.4, 100 mM KCl, 10% glycerol, 1 mM dithiothreitol; 0.2 mM EGTA or 1 mM free Ca2+; RT 45 min; Accudenz gradient, 287,000g; SDS-PAGE, Coomassie blue, densitometry
Settings: both partners purified

binding result: binds
B1: wild-type cytoplasmic domain of synaptotagmin 1 (residues 96-421) (domain or fragment, rat, UniProt P21707 96-421, looked up)
chain: GGKNAINMKDVKDLGKTMKDQALKDDDAETGLTDGEEKEEPKEEEKLGKLQYSLDYDFQNNQLLVGIIQAAELPALDMGGTSDPYVKVFLLPDKKKKFETKVHRKTLNPVFNEQFTFKVPYSELGGKTLVMAVYDFDRFSKHDIIGEFKVPMNTVDFGHVTEEWRDLQSAEKEEQEKLGDICFSLRYVPTAGKLTVVILEAKNLKKMDVGGLSDPYVKIHLMQNGKRLKKKKTTIKKNTLNPYYNESFSFEVPFEQIQKVQVVVTVLDYDKIGKNDAIGKVFVGYNSTGAELRHWSDMLANPRRPIAQWHTLQVEEEVDAMLAVKK
notes: synaptotagmin 1, rat, cytoplasmic domain with the tandem C2-domains C2A and C2B, residues 96-421; the D374 of the original cDNA was corrected to glycine; The native linker between C2A and C2B is residues 264-272, SAEKEEQEK; Residue 374 is glycine after correction of the cDNA; also called WT syt; syt
